Assay: soluble fraction after stress (log2 fold change); higher = more stays soluble; pooled small domains, quantitative proteomics
Settings: stress: 75 degC
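Further: 20 min heating vs room temperature control held 20 min.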

Row | Sequence | soluble fraction (log2)
1 | HMTIYPFNPNYLKDYQAYRVGLSLKEIDALLDFRSSGQWINSAEDFQRITGVSDSVLEQLIPYFKFS | -2.98
2 | HMEALPELTDRQRQVYEFIEARIAEWGYPPTIREIGQHLGIKSTNGVADHLKALKRKGYLQQ | -0.566
3 | HMGAITGLQSRVAFLKGQGTITDAEAKTAMAFLPDPTDSKEVKIAKIGQAREYIMSLIENRA | -0.267
4 | HMLYETLKKGDQGTSVKTLQEKLKALGYLTGAADGKYGAGTETAVKSFQKAAGLTETGTADPETLSAVYAA | 0.619
5 | HMLVGGPDTPSKVTVSFDLGSRQAVDELTERAGAAGGRIGDIDDYPFMYQRQFDDPDGYHYSPFWMKP | -0.177
6 | HMSRLLTTRQREVFEVATREGFWDVPRRINLSELAKVLGVAKSTLSSQLQRIESAVFHAFTDEIRRQS | -2.09
7 | HMVAPNSEATTKLIIEKTKYANESPAILMGFKATATMLMAKHVVLPTSKYAYFNEGRALLEKAIK | 0.154
8 | HMSNYLKSVEVFDPITNKWSYVSAMKVRRGYVAVVATMDRLYAIGGYDGENYLSTVEMYNPDTN | 0.108
9 | HMSMQIILLDKVVNLGGLGDVVKVKDGYARNYLIPQGKAKRANTANLAEFEARRVELERLAAEQLAQAQA | -0.0666
10 | HMSREVTVPPLSGLTLRDAARTLAERGLLMEAEGQGAVHRQDPPAGTRVPTGTPVRVFLTLPEQNS | 0.842
11 | HMSDDSTIVELLASSLRRDIAFGTLLPDQKLKLNELRTRYGGSIHSMRETLRILSAEGLVEATAQRGFRVT | 0.0731
12 | HMSTTSYTQFMEDAKAGKIARVDIKGREITVTPTEGSRYVITSPGDLWMVDDLRKDGVQVYGPP | 0.0558
13 | HMAVTNLTAKQISDTRWRVTWDSTLASPTYYVYRDGLLMMQTRQELYEFDAARGEQVQIDVLDDMAAAPAE | -0.853
14 | HMNKPKIIINSVDDSVFSDYVKDSLSIAEVARSIGIDNNKINTSVYREIHKRIDSLKLDTSHFTGGAWN | -0.235
15 | HMSHSDMEEWTDAVRSRRKKLGLTQVQIARRLGVTSHHFSQIESGRTIPSASLQIEIDRLLKNWND | -1.73
16 | HMTHAISKTYAVTGEQLKNGFTLTHTFANGSTRRVDVYPGSRSGKVIAVRNTTDDTTEWIRIVEG | -0.2
17 | HMLSGGEVKRIEIATILARKSGLMIFDEPEAGIDLWSFARLVETFEDIRSNTSGSLVIISHQ | 0.0709
18 | HMLQFTYPRLHTKKSWYVDFMSFDPGAGKMRRKKFMLDGIPKITDRRKRAAELIEVLTKQLRAGWSPWVNV | -3.85
19 | HMSRQDYLQTIYRLSVGKGYTTNKKIADFLSVSKPSVTEMIGKLQGEGLVAMDGAHIFLTEDGAEQ | -0.595
20 | HMHPLFRVVLAGEPNGVGLDDWLTRHEAELINGPSAIGVLTVKIAMGRRSFETVLDEIRADGETIFVEPV | -3.49
21 | HMSDKNVYGKYKNVFLSDEEFSELKQFYPNDWSDRIETLSEGIELKGYKYKNYLLAIKKWAEYEGQKAD | -0.47
22 | HMYIDNVTIYDVGFNERIVHALERAGVKNLYDLSQMNFYQLQRIRNLGASSLEKVINRIHSYGILLKNES | -0.902
23 | HMHPKTPDELLALMSEEQRGQIEQLAKLVLMAVSYSGASYYDAVTTMYPRMSEERRRIITHVLNTASP | -0.908
24 | HMKQQNFADLAGRFVFNADNEVVFNFGKHKNVPVATVLKNEPGYYGWMMGGDFPLFTKKILKQIKEA | -1.05
25 | HMTNKQEYAYQWLKSSIIENKIKPSTLLVERHLSEMLHISRTPVRTALMRLADEGFVVISPGRGMVVA | -2.32
26 | HMEIMELPEYVVRSGSGLDAFREKWDLWDQGLMYDLKDKRAVFPIFIDGVMIDAVGRALAGAEPKWLRYTG | -0.176
27 | HMKPLRPVHLEIQTHRLSPVGILRSSFRQAGKVMHSNHGRITGLNLEQLKLIQAAFAGEALPK | -0.158
28 | HMGAQINSPISGTILKYLVKNGDKITKDQPLVNIESMKMENTIKSDKEGIVNNINFKIGDSVNTADTLLTL | 0.0698

Row | Sequence | soluble fraction (log2)
29 | HMNFTEAEQRFHFLEDQRQRGVLSLEQYRAELAQLRVTDAWGRLWMLQEQTGQWFVFHEGQWRPSQ | -0.408
30 | HMEMTEDEITKQFDAMEREAKKEIDTGADKRAFMYGVSRTAAGMAGKNPKYARFITDKAKEVIENIAKYK | 0.298
31 | HMSQLSQIVDAFGGLRPFARALNKPPSTVQYWIEKGGIPASVVSPIMKLSEEKGLGLSRDQVSAAVS | 0.441
32 | HMDNEYDKVYQAALSKLEGYPRSSITTAVIKDVVAQTIKYFEIKNFGYEDTIINQLQSAFTVKSSS | -0.0883
33 | HMLQADALADPVGWALRTLGFDLEAGTPERSAIQRSFRQSLIEAHPDHGGADDEAAQRIADITEARRILLA | -0.403
34 | HMQTLGADLRALRKARGLTLTDMAETLGRSVGWLSQVERDLSEPSITDLRHMARTLGVSVSMLFS | -1.52
35 | HMQNDILIQADEIVGDYFDMDKEALKMNKQAVIADIEKRQATAQGDEASALHYAKQKVENEFEDDGSQKD | 0.109
36 | HMSPLQLGNYNTLRITRFTDHGAYLDGGDVGEILMPKTYVLPEMKPGDEVRVFVYLDQEERLVGTTET | -0.622
37 | HMQKLSPKQRRGNIIELIKENPTITAKNISTIFNLNQRTIERDLAKLTEEGYIKYEGSSKDGKWVFL | -0.134
38 | HMSYTYPVARLNHIKGKWYVLVSVPAHLRHLFPNQRDLRRSTGTDDESLAKRKQHALAQEIYDLFD | -0.653
39 | HMSLLQTRQRHEALAALGFFKGDVAAEWSAASTEALRAAQASLGIRVDGKWGPQTEDAIGKALAERQG | 0.0108
40 | HMGFSDDEHNALADADLKKALEVTTNKSETQYNIAKLIYSYIISLGDKKPYGDWSYDKALSIIHDA | -0.0187
41 | HMDKSLDFASIKSVEIATGRKFGWHALKKWSKSNSSEIKTIPDPNFGEVKTYHKDAWLAVYNINLSPILD | -0.376
42 | HMDDHLRLSDNERISAMSALATHFTEGRLDTSEFDERTLAASQAKSRGDLRPLFDDLPGQLPAALSP | 0.0298
43 | HMIESVMVGIKELLGDTIDQKYEKYIRLGGIPSDEVDEFNSVFSAYEKVNGNHNGKKKYDYVMNNLPIIPV | -0.574
44 | HMDSNISVSEALEMVDKGSVKEIIVEGEKLYITNQDGKQYTSSKEVGVSLIELMKDSGIDPIKSDVNIIVK | 0.463
45 | HMQKTIDWSQVDKEQYLSAMERSPVNDLEIKAILAKALTSDINNRELFMKGLDHSYYFEGYQLFKSE | -0.526
46 | HMSTADGGYPSIVINDGRVIDTNLQKLGLDRSWLSAELKRQGKGSEKDIFLMTVNQRREVYISVKEA | -1.89
47 | HMSGIGTTIKMLRENKNISQEELGNVLGVSDKTISSWEINRTEPKMGIVQLLADYFGVSTDYLIKG | -0.447
48 | HMLKIVRSREEVESRLYTIYGNVKGRRLYNFYLSLIIDGLDIVKARTSKNVYYTNIRNLKNAGIDFSQKIN | -2.28
49 | HMQSNDAGELEAVVKGIIDANPKVVADYLAGNQKVVSFFVGQAMKATKGKANPKMVSEILGKLL | -0.0975
50 | HMVPSSHNIAQKVKQIKINDLWLDVRERYIYLKNLYLSHPLEKDHPSFIVYVEAVNQIYNQYF | -0.0707
51 | HMKEPGFAPPVRALAAAPITVLAQVAGTNPGEIRARLRAAGYPVASDQQSVQSLVGGDLKAQIGVLNRILA | -0.286
52 | HMIVVMARETSTDDLEAIRERIESRGMVAQINLGVERTVIGVMGSIPPDFKDEMELMNGVVEVVMISK | -2.56
53 | HMALPPPELRGATGEAVTALRPAGIALIQGKRYDVLAEGGEWIAAGAAVRVRDIRNGHLIVSDA | -0.268
54 | HMDPEQLKIAINTKMPFGKYSGRPLLLLPEPYLVWFKQQGFPDSKLGSQLAMMYEVKLNGLEQMLMPLL | -0.665
55 | HMGNEVMYRQDLSEQELLSFIKKYTGQDEVTHIVVGAPKQRDNTPSPVETKITPFVVQLKAQFPDVNVV | 0.0976

Source: the domain aggregation screens of Martell et al. (2025)
